Data published in patent publication US6551840B2, “Method of screening TGF-β-inhibiting substances” (Chugai Seiyaku Kabushiki Kaisha, priority 1997, dated 2003).

Key:
TAK1 [1] = biological target: T1, TAK1 (Mus musculus, UniProt Q62073); experiment: Yeast 2-hybrid method, β-galactosidase activity: binding ability of TAB1 deletion mutants to TAK1; format: cell-based; settings: yeast L40 co-transformed with TAK1 2-hybrid expression plasmid; GAL4 activation domain fusion; measured three times
T1 construct: A gene encoding a full-length TAK1 was prepared by digesting yeast 2-hybrid expression plasmid pBTMHu11F; expressed in transfected cells; host or cells: Saccharomyces cerevisiae strain L40
T1 sequence (Q62073 1-579): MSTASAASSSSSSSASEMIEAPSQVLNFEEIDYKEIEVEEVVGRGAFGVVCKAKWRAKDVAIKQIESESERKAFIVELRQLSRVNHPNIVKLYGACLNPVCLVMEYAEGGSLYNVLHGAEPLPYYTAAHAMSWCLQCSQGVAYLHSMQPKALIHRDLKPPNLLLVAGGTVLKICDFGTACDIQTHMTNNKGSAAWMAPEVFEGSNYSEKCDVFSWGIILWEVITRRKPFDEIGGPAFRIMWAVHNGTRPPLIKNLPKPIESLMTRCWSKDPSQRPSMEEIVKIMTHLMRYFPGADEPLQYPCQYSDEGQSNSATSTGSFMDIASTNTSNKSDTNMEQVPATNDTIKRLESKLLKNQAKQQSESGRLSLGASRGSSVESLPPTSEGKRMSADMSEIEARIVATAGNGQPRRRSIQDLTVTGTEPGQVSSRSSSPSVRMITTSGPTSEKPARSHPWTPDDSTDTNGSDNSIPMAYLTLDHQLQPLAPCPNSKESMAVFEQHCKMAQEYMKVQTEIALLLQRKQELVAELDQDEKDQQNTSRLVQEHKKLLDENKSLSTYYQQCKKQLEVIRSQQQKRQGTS
From the text: In order to evaluate each TAB1 deletion mutant constructed in Example 10, a yeast 2-hybrid expression vector of each TAB1 deletion mutant and a yeast 2-hybrid expression vector pBTMHu11F (Shibuya H. et al., Science (1996) 272, 1179-1182) that expresses TAK1 were co-transformed into a yeast strain L40 (Shibuya H. et al., Science (1996) 272, 1179-1182). […] each of a TAB1 deletion mutant expression vector (pGAD-TAB1C45 to pGAD-TAB1C45 in Working Example 10-1 and pGAD-TAB1C45D14 to pGAD-TAB1C45D25 in Working Example 10-2) or pGAD-TAB1 (Shibuya H. et al., Science (1996) 272, 1179-1182) as a control and pBTMHu11F were introduced into the L40 strain according to the instructions (MATCHMAKER™ Two-Hybrid System, manufactured by CLONTECH), and were incubated on a selection agar medium SD-ULW (glucose 20 g, agar (manufactured by DIFCO) 20 g, Yeast Nitrogen Base w/o amino acids (manufactured by DIFCO) 6.7 g, adenine 100 mg, isoleucine 30 mg, valine 150 mg, arginine 20 mg, lysine 30 mg, methionine 20 mg, phenylalanine 50 mg, threonine 200 mg, tyrosine 30 mg, histidine 100 mg-per liter of medium) at 30° C. for 3 days to obtain each transformant.
In order to evaluate the binding ability to TAK1 of each TAB1 deletion mutant constructed in Example 10, activity was determined by the yeast 2-hybrid method. Since a reporter gene lacZ having the LexA binding sequence upstream thereof has been integrated on the chromosome of the yeast strain L40, the binding ability to TAK1 of each TAB1 deletion mutant can be evaluated in relative terms by measuring the activity of β-galactosidase that is a reporter gene product.
The β-galactosidase activity of each transformant obtained in Example 11 was determined according to the instructions (MATCHMAKER™ Two-Hybrid System, manufactured by CLONTECH), and the activity was calculated using Miller Unit (Miller, J. H. (1972) Experiments in Molecular Genetics, Cold Spring Harbor Laboratory, Cold Spring Harbor, N.Y.).
In FIG. 11, the β-galactosidase activity of each TAB1 deletion mutant and the yeast L40 transformed by the yeast 2-hybrid expression plasmid of TAK1 was expressed in terms of Miller Units. Measurement was carried out three times and the mean+/−SD is shown. The value indicates a ratio based on the β-galactosidase activity of the yeast L40 transformed by TAB1C68 and the yeast 2-hybrid expression plasmid of TAK1.
The β-galactosidase activity of each transformant obtained in Example 11 was determined according to the instructions (MATCHMAKER™ Two-Hybrid System, manufactured by CLONTECH), and the activity was calculated using Miller Units (Miller, J. H. (1972) Experiments in Molecular Genetics, Cold Spring Harbor Laboratory, Cold Spring Harbor, N.Y.).
In FIG. 12, the β-galactosidase activity of the yeast L40 transformed by each TAB1 deletion mutant and the yeast 2-hybrid expression plasmid of TAK1 was expressed in terms of Miller Units. Measurement was carried out three times and the mean+/−SD is shown. The value indicates a ratio based on the β-galactosidase activity of the yeast L40 transformed by the TAB1C68 and yeast 2-hybrid expression plasmid of TAK1.
First, binding between the 68, 45, 40, 35, 30 and 25 amino acid regions of the carboxy terminal of TAB1 and TAK1 was evaluated by the yeast 2-hybrid method mentioned above.

TAK1 [2] = experiment: Growth of yeast SY1984-P on plate without histidine: ability of TAB1 deletion mutants to activate TAK1; format: cell-based; settings: growth of yeast SY1984-P with pNV11-HU11 on SC-His plate, 30° C.
From the text: The region of TAB1 required to induce the kinase activity after binding to TAK1 was identified using TAB1 deletion mutants.
Expression vectors for the 40, 35 and 30 amino acid regions (FIG. 14) in the carboxy terminal of TAB1 were constructed as described below. Thus, genes encoding 40, 35 and 30 amino acid regions respectively in the carboxy terminal of TAB1 were amplified by the PCR method as described above, digested with restriction enzymes XhoI and EcoRI, and inserted to the GAL4 transcription activated domain expression vector pGAD10 to construct pGAD-TAB1C40, pGAD-TAB1C35 and pGAD-TAB1C30, respectively. Furthermore, expression vectors for the TAB1 deletion mutants (FIG. 14) comprising 68, 45 and 25 amino acid regions in the carboxy terminal of TAB1 used were pGAD-TAB1, pGAD-TAB1C45 and pGAD-TAB1C25.
Subsequently, it was investigated whether each TAB1 deletion mutant can induce the kinase activity of TAK1 using the method described in Japanese Unexamined Patent Publication (Kokai) 9(1997)-163990. Thus, the above TAB1 deletion mutant expression vector and TAK1 expression vector pNV11-HU11 (Yamaguchi, K. et al., Science (1995) 270, 2008-2011) were introduced into Saccharomyces cereviceae SY1984-P strain (his3Δ, stellΔ, FUS1p::HIS3, STE7^P368) to obtain deletion mutants. […] These transformants were plated onto a SC-His (glucose 20 g, agar (manufactured by DIFCO) 20 g, Yeast Nitrogen Base w/o amino acids (manufactured by DIFCO) 6.7 g, adenine 100 mg, isoleucine 30 mg, valine 150 mg, arginine 20 mg, lysine 30 mg, methionine 20 mg, phenylalanine 50 mg, threonine 200 mg, tyrosine 30 mg per liter of medium) plate containing no histidine, incubated at 30° C., and the growth of yeast transformed with each expression vector was confirmed in order to evaluate the ability of each TAB1deletion mutant to activate TAK1.

Molecule: TAB1C20: polypeptide comprising 20 amino acids of the carboxy terminal of TAB1 (AEFYRLWSVDHGEQSVVTAP; left off: large carriers)
- specific activity: β-galactosidase activity as ratio to TAB1C68 (TAK1 [1]): 0.03

Molecule: TAB1C21: polypeptide comprising 21 amino acids of the carboxy terminal of TAB1 (FAEFYRLWSVDHGEQSVVTAP; left off: large carriers)
- specific activity: β-galactosidase activity as ratio to TAB1C68 (TAK1 [1]): 0.03

Molecule: TAB1C22: polypeptide comprising 22 amino acids of the carboxy terminal of TAB1 (DFAEFYRLWSVDHGEQSVVTAP; left off: large carriers)
- specific activity: β-galactosidase activity as ratio to TAB1C68 (TAK1 [1]): 0.03

Molecule: TAB1C23: polypeptide comprising 23 amino acids of the carboxy terminal of TAB1 (VDFAEFYRLWSVDHGEQSVVTAP; left off: large carriers)
- specific activity: β-galactosidase activity as ratio to TAB1C68 (TAK1 [1]): 0.05

Molecule: TAB1C24: polypeptide comprising 24 amino acids of the carboxy terminal of TAB1 (YVDFAEFYRLWSVDHGEQSVVTAP; left off: large carriers)
- specific activity: β-galactosidase activity as ratio to TAB1C68 (TAK1 [1]): 0.35

Molecule: TAB1C25: polypeptide comprising 25 amino acids of the carboxy terminal of TAB1 (PYVDFAEFYRLWSVDHGEQSVVTAP; left off: large carriers)
- ability to activate TAK1 (TAK1 [2]): not

Molecule: TAB1C30: 30 amino acid region in the carboxy terminal of TAB1 (DGRVEPYVDFAEFYRLWSVDHGEQSVVTAP; left off: large carriers)
- ability to activate TAK1 (TAK1 [2]): observed

Molecule: TAB1C35: 35 amino acid region in the carboxy terminal of TAB1 (LPPGEDGRVEPYVDFAEFYRLWSVDHGEQSVVTAP; left off: large carriers)
- ability to activate TAK1 (TAK1 [2]): observed

Molecule: TAB1C40: 40 amino acid region in the carboxy terminal of TAB1 (RPAHSLPPGEDGRVEPYVDFAEFYRLWSVDHGEQSVVTAP; left off: large carriers)
- ability to activate TAK1 (TAK1 [2]): observed

Molecule: TAB1C45 Δ19: lacks 19 amino acids from the carboxy terminal of the 45 amino acid carboxy terminal portion of TAB1 (GLFRSRPAHSLPPGEDGRVEPYVDFA; UniProt Q15750 460-485, looked up, fragment)
- specific activity: β-galactosidase activity as ratio to TAB1C68 (TAK1 [1]): 0.13

Molecule: TAB1C45 Δ20: lacks 20 amino acids from the carboxy terminal of the 45 amino acid carboxy terminal portion of TAB1 (GLFRSRPAHSLPPGEDGRVEPYVDF; UniProt Q15750 460-484, looked up, fragment)
- specific activity: β-galactosidase activity as ratio to TAB1C68 (TAK1 [1]): 0.11

Molecule: TAB1C45 Δ21: lacks 21 amino acids from the carboxy terminal of the 45 amino acid carboxy terminal portion of TAB1 (GLFRSRPAHSLPPGEDGRVEPYVD; UniProt Q15750 460-483, looked up, fragment)
- specific activity: β-galactosidase activity as ratio to TAB1C68 (TAK1 [1]): 0.01

Molecule: TAB1C45 Δ22: lacks 22 amino acids from the carboxy terminal of the 45 amino acid carboxy terminal portion of TAB1 (GLFRSRPAHSLPPGEDGRVEPYV; UniProt Q15750 460-482, looked up, fragment)
- specific activity: β-galactosidase activity as ratio to TAB1C68 (TAK1 [1]): 0.02

Molecule: TAB1C45 Δ23: lacks 23 amino acids from the carboxy terminal of the 45 amino acid carboxy terminal portion of TAB1 (GLFRSRPAHSLPPGEDGRVEPY; UniProt Q15750 460-481, looked up, fragment)
- specific activity: β-galactosidase activity as ratio to TAB1C68 (TAK1 [1]): 0.00

Molecule: TAB1C45 Δ24: lacks 24 amino acids from the carboxy terminal of the 45 amino acid carboxy terminal portion of TAB1 (GLFRSRPAHSLPPGEDGRVEP; UniProt Q15750 460-480, looked up, fragment)
- specific activity: β-galactosidase activity as ratio to TAB1C68 (TAK1 [1]): 0.02

Molecule: TAB1C45 Δ25: lacks 25 amino acids from the carboxy terminal of the 45 amino acid carboxy terminal portion of TAB1 (GLFRSRPAHSLPPGEDGRVE; UniProt Q15750 460-479, looked up, fragment)
- specific activity: β-galactosidase activity as ratio to TAB1C68 (TAK1 [1]): 0.01

Molecule: TAB1C45: polypeptide comprising 45 amino acids of the carboxy terminal of TAB1 (GLFRSRPAHSLPPGEDGRVEPYVDFAEFYRLWSVDHGEQSVVTAP; left off: large carriers)
- ability to activate TAK1 (TAK1 [2]): observed

B1: TAB1C68: 68 amino acid residues of the carboxy terminal of the TAB1 polypeptide (pGAD-TAB1) (protein)
chain: QSPTLTLQSTNTHTQSSSSSSDGGLFRSRPAHSLPPGEDGRVEPYVDFAEFYRLWSVDHGEQSVVTAP
modifications: GAL4 activation domain fusion
- ability to activate TAK1 (TAK1 [2]): observed
